System: peptide library, one residue held at a place counted from the S/T acceptor
Assay: relative phosphorylation of the sub-library (ratio to the mean residue at this position); higher = residue favoured
Settings: human
In short: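 In 384-well plates, purified recombinant kinases (human or orthologue constructs) were incubated for 90 min under kinase-specific conditions with 50 μM biotinylated degenerate peptide sub-libraries and 50 μM ATP spiked with γ-32P-ATP. Each sub-library fixed a single residue at one position around a central Ser/Thr. Relative sub-library phosphorylation, measured by phosphorimaging and densitometry of streptavidin membrane spots, is given as a ratio to the mean residue at that position.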

Chain of STK17A, construct: Full length (Q9UEE5 whole entry, looked up): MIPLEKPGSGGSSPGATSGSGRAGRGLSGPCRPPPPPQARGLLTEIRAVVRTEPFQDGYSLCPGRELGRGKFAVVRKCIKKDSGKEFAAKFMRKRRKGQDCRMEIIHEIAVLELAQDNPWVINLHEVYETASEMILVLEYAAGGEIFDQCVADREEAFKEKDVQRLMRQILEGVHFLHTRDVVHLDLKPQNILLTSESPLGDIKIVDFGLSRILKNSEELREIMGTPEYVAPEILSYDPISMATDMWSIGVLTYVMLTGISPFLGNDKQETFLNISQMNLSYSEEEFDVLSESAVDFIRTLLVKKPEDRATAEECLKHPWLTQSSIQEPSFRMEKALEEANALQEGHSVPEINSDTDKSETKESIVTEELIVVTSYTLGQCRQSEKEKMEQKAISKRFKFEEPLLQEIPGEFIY

PKN1, construct: aa460-982 (from UniProt Q16512)
relative phosphorylation
Settings	at +1	at +2	at +3	at +4	at -1	at -2	at -3	at -4	at -5
A fixed	0.528	0.745	0.906	1	1.03	1.13	0.67	1.01	0.865
D fixed	0.183	0.162	0.281	0.393	0.581	0.2	0.126	0.354	0.262
E fixed	0.171	0.149	0.352	0.372	0.509	0.254	0.14	0.536	0.256
F fixed	4.71	0.739	1.14	0.743	1.03	0.85	0.456	1.06	1.19
G fixed	0.361	0.397	0.783	0.98	1	0.777	0.412	1.14	0.789
H fixed	0.564	1.34	1.02	1.22	1.22	1.16	0.907	1.03	0.761
I fixed	1.26	0.785	1.04	0.753	0.535	0.557	0.407	0.88	1.6
K fixed	0.784	2.16	1.46	2.04	1.53	2	2	1.73	1.2
L fixed	1.13	1.1	1.06	0.794	0.973	0.638	0.455	0.922	1.84
M fixed	2.16	0.896	1.06	0.819	1.05	0.89	0.483	1.07	0.967
N fixed	0.483	0.575	0.629	0.929	1.16	0.926	0.315	0.717	0.49
P fixed	0.266	0.297	0.493	1.4	1.16	0.347	0.328	0.59	0.921
Q fixed	0.62	0.578	0.736	0.996	0.947	1.05	0.585	0.842	0.643
R fixed	0.999	4.44	2	1.86	1.51	3.36	8.17	2.01	1.61
V fixed	0.852	0.749	1.02	0.678	0.622	0.781	0.373	0.991	1.55
W fixed	0.889	0.675	1.5	1.15	0.9	1.1	0.58	0.992	0.926
Y fixed	1.04	1.22	1.53	0.87	1.24	0.978	0.6	1.13	1.14
pThr fixed	0.476	0.43	0.412	0.443	0.302	0.296	0.259	0.551	0.368
pTyr fixed	0.314	0.354	0.567	0.384	0.388	0.266	0.215	0.412	0.514

STK17A, construct: Full length (from UniProt Q9UEE5)
relative phosphorylation
Settings	at +1	at +2	at +3	at +4	at -1	at -2	at -3	at -4	at -5
A fixed	0.4	0.562	0.679	0.808	0.636	1.04	0.701	0.927	0.979
D fixed	0.954	0.564	0.686	0.86	0.85	0.657	0.799	1.06	0.922
E fixed	0.984	0.612	1.18	0.917	0.967	0.597	0.681	1.09	0.916
F fixed	4.75	0.832	1.05	0.896	1.11	0.943	0.802	0.772	0.876
G fixed	0.63	0.444	0.889	0.868	0.801	1.2	0.868	1.23	1.11
H fixed	0.502	1.83	1.12	1.15	1.16	1.25	1.02	1.03	1.06
I fixed	0.75	0.709	1.49	0.742	0.621	0.491	0.65	0.586	0.721
K fixed	0.498	1.7	1.08	1.49	1.23	1.32	1.28	1.43	1.63
L fixed	0.678	0.732	0.989	0.713	1.24	0.648	0.783	0.62	0.872
M fixed	1.41	0.787	0.984	0.669	1.19	0.892	1.13	0.798	0.837
N fixed	0.558	0.93	0.733	0.988	1.06	1.05	0.902	1	1.06
P fixed	0.251	0.332	0.539	0.952	0.589	0.673	0.888	0.979	0.993
Q fixed	1.66	1.09	0.815	1	0.931	0.934	0.989	0.782	0.704
R fixed	0.494	2.6	1.17	1.7	1.18	1.8	2.58	1.32	1.38
V fixed	0.53	0.708	1.04	0.693	0.721	0.638	0.56	0.73	0.829
W fixed	0.974	1.16	1.2	1.33	1.07	1.83	1.43	1.81	1.16
Y fixed	0.972	1.41	1.37	1.23	1.64	1.04	0.945	0.842	0.947
pThr fixed	6.24	3.31	1.2	1.45	0.813	0.788	0.9	0.977	0.971
pTyr fixed	1.4	1.6	3.08	1.39	1.61	0.941	1.06	1.17	0.918

Reference: the supplement of paper PMC9876800
